Laboratory results as given in patent US20240376170A1 (BRIGHT PEAK THERAPEUTICS, published 2024).
One block for each binder: values may come before it. Bridges are numbered along the chain shown (N, C = ends). Primed or numbered codes have the meaning given here. [ ]: non-standard residue; d: D form. Ygp = O-(8x polyethylene glycol-amino)-tyrosine (Tyr, amino-capped PEG8); Yn3 = O-(9x polyethylene glycol-azido)-tyrosine (Tyr, azide-capped PEG9); Ygp″ = O-(8x polyethylene glycol-amino)-tyrosine; Yn3″ = O-(9x polyethylene glycol-azido)-tyrosine; Ygp(3) = O-(PEG8-amino)-tyrosine; Yn3(3) = O-(PEG9-azido)-tyrosine; hSer = N[C@@H](CCO)C(=O)O; Nle = CCCC[C@H](N)C(=O)O

What was measured:
[1] = biological target: T1, recombinant human IL-2 receptor beta containing a His-tag and Avi-tag (human, UniProt P14784 27-239); experiment: BLI (Octet R8), receptor on SAX2 sensor
T1 construct: Bought; attached to the SAX2 biosensor; also called CD122; IL-2R β; not shown: His-tag and Avi-tag
T1 sequence (looked up): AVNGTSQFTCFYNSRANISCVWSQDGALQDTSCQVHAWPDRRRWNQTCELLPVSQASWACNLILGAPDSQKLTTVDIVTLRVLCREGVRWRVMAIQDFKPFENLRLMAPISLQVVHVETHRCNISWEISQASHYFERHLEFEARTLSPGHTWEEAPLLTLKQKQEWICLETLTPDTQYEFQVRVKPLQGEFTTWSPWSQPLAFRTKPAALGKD
Method: (§1) Bilayer interferometry (BLI) assays were used to measure the binding constants between activatable IL-2 polypeptides (and activated versions thereof) to IL-2 receptor subunits or receptor complexes. BLI assays were conducted on an Octet® R8 instrument. Assay plates were 96 well, polypropylene, F-bottom (chimney well), black microplates (Greiner Bio-one, Cat. No: 655209). The biosensors were Octet® SAX2 (Sartorius, Cat. No: 18-5136). The assay buffer was 1X Kinetic Buffer (Sartorius, Cat. no: 18-5136) or Phosphate Buffered Saline (PBS) that contained 0.02% (v: v) Tween 20 (Polysorbate 20) and 0.1% (w/v) bovine serum albumin (BSA). The sensor was regenerated between measurements in 10 mM glycine pH 2.7 buffer.
(§2) Sensor attached receptors were either recombinant human IL-2 receptor beta containing a His-tag and Avi-tag™ (R&D Systems™) or an Avi-tag™ Fc with human IL-2R beta and IL-2R gamma attached (Acrobiosystems Cat. no: ACRB-ILG-H₈₂F3-25UG). Receptors were reconstituted from lyophilized powder to 500 μg/ml in PBS. Analytes were diluted in Kinetic buffer to 300 nM, then serially diluted to lower concentrations.

[2] = biological target: T1, recombinant human IL-2 receptor beta …; experiment: BLI (Octet R8), receptor on SAX2 sensor; construct CMP-166, intact (no MMP2)
Method: as §1, §2

[3] = biological target: T2, Avi-tag Fc with human IL-2R beta and IL-2R gamma attached (Acrobiosystems ACRB-ILG-H82F3-25UG) (human, UniProt P14784 27-239; P31785 23-262); experiment: as above
T2 construct: Bought; attached to the SAX2 biosensor; also called CD122 CD132; IL-2R βγ; not shown: Fc and Avi-tag
T2 sequence (looked up) 1: T1 sequence (looked up)
T2 sequence (looked up) 2: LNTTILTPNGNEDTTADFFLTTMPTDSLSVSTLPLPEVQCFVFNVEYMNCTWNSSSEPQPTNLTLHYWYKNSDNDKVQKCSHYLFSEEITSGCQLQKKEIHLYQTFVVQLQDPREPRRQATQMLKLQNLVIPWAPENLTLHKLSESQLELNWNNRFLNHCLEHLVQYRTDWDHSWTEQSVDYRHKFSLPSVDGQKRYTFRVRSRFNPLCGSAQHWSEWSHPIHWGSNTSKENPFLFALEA
Method: as §1, §2

[4] = biological target: T1, recombinant human IL-2 receptor beta …; experiment: BLI (Octet R8), receptor on SAX2 sensor; construct CMP-165, intact (no MMP2)
Method: as §1, §2

[5] = biological target: T2, Avi-tag Fc with human IL-2R beta and …; experiment: as above
Method: as §1, §2

[6] = biological target: T2, Avi-tag Fc with human IL-2R beta and …; experiment: BLI (Octet R8), receptor on SAX2 sensor
Method: as §1, §2

[7] = biological target: T1, recombinant human IL-2 receptor beta …; experiment: BLI (Octet R8), receptor on SAX2 sensor; CMP-165 treated with MMP2 (cleaved)
Method: as §1, §2

[8] = biological target: T2, Avi-tag Fc with human IL-2R beta and …; experiment: as above
Method: as §1, §2

[9] = biological target: T1, recombinant human IL-2 receptor beta …; experiment: BLI (Octet R8), receptor on SAX2 sensor; construct CMP-145, not MMP2-treated
Method: as §1, §2

[10] = biological target: T2, Avi-tag Fc with human IL-2R beta and …; experiment: as above
Method: as §1, §2

[11] = biological target: T1, recombinant human IL-2 receptor beta …; experiment: BLI (Octet R8), receptor on SAX2 sensor; construct CMP-168, intact (no MMP2)
Method: as §1, §2

[12] = biological target: T1, recombinant human IL-2 receptor beta …; experiment: BLI (Octet R8), receptor on SAX2 sensor; CMP-168 treated with MMP2 (cleaved)
Method: as §1, §2

B2: CMP-165 (ligand)
chain: APTSSSTKKTQLQLEHLLLDLQKILNGINNYKNPKLTR[Nle]L[hSer][Yn3]KF[Ygp][Nle]PKKATELKHLQCLEEELKPLEEVL[hSer]LAQSKNFHLRPRDLISNINVIVLELKGSETTF[hSer]CEYADETATIVEFLNRWITFSQSIISTLT
modifications: bridge N-23; not fully specified (bridges); ends not checked; also: sequence of the cleavable peptide in the bridge not given here
koff [1]: 0.633 s⁻¹
Kd [4]: 44.2 µM
Kd [5]: 0.0261 nM

B3: CMP-165, MMP2 cleaved (ligand)
chain: APTSSSTKKTQLQLEHLLLDLQKILNGINNYKNPKLTR[Nle]L[hSer][Yn3]KF[Ygp][Nle]PKKATELKHLQCLEEELKPLEEVL[hSer]LAQSKNFHLRPRDLISNINVIVLELKGSETTF[hSer]CEYADETATIVEFLNRWITFSQSIISTLT
modifications: also: glutaryl-peptide bridge Ala1 to Lys23 cut by MMP2, site not given here, ring opened
notes: Tested after MMP2 treatment
koff [1]: 0.237 s⁻¹
kon [1]: 213000 M⁻¹ s⁻¹
koff [6]: 0.00114 s⁻¹
kon [6]: 608000 M⁻¹ s⁻¹
Kd [7]: 1.11 µM
Kd [8]: 0.00187 µM

B4: CMP-145 (ligand)
chain: APTSSSTKKTQLQLEHLLLDLQKILNGINNYKNPKLTR[Nle]L[hSer][Yn3(3)]KF[Ygp(3)][Nle]PKKATELKHLQCLEEELKPLEEVL[hSer]LAQSKNFHLRPRDLISNINVIVLELKGSETTF[hSer]CEYADETATIVEFLNRWITFSQSIISTLT
modifications: also: Lys23 side chain attached to another sequence (not given here)
notes: Synthetic IL-2 polypeptide, tested intact
koff [6]: 0.00117 s⁻¹
Kd [9]: 1.83 µM
Kd [10]: 0.0102 µM

Next, values leading:

koff [1]: 0.613 s⁻¹
Kd [2]: 0.614 µM
Kd [3]: 0.0161 µM
B1: CMP-166 (ligand)
chain: APTSSSTKKTQLQLEHLLLDLQKILNGINNYKNPKLTR[Nle]L[hSer][Yn3]KF[Ygp][Nle]PKKATELKHLQCLEEELKPLEEVL[hSer]LAQSKNFHLRPRDLISNINVIVLELKGSETTF[hSer]CEYADETATIVEFLNRWITFSQSIISTLT
modifications: bridge N-23; not fully specified (bridges); ends not checked; also: sequence of the cleavable peptide in the bridge not given here

koff [6]: 0.0022 s⁻¹
Kd [11]: 25.1 µM
B5: CMP-168 (ligand)
chain: APTSSSTKKTQLQLEHLLLDLQEILNGINNYKNPKLTR[Nle]L[hSer][Yn3″]KF[Ygp″][Nle]PKKATELKHLQCLEEELKPLEEVL[hSer]LAQSKNFHLRPRDLISNINVIVLELKGSETTF[hSer]CEYADETATIVEFLNRWITFSQSIISTLT
modifications: bridge 9-23; not fully specified (bridges); ends not checked

koff [1]: 1.08 s⁻¹
kon [1]: 789 M⁻¹ s⁻¹
Kd [6]: 0.00227 µM
koff [6]: 0.00164 s⁻¹
kon [6]: 602000 M⁻¹ s⁻¹
Kd [12]: 1370 µM
B6: CMP-168, MMP2 cleaved (ligand)
chain: APTSSSTKKTQLQLEHLLLDLQEILNGINNYKNPKLTR[Nle]L[hSer][Yn3″]KF[Ygp″][Nle]PKKATELKHLQCLEEELKPLEEVL[hSer]LAQSKNFHLRPRDLISNINVIVLELKGSETTF[hSer]CEYADETATIVEFLNRWITFSQSIISTLT
modifications: ends and bridges not checked; also: MMP2 cleaved, ring opened, cut site and remnants not given here
notes: Tested after MMP2 treatment
